± gives the uncertainty stated by the source.

First the molecules themselves.
B1: Kinesin-like protein KIF16B, residues 1213 to 1273; numbered along this chain, Q96L93 (parent)
chain: ETWTVFRRYSRFREMHKTLKLKYAELAALEFPPKKLFGNKDERVIAERRSHLEKYLRDFFS

In the series the parent is B1. The series can be described thus: abundance fitness (aPCA) (normalised: wild type 0, dead -1); higher = more abundant; growth selection in yeast, the domain comes from the species named. The note with it: Homo sapiens.
Take ETWTVFRRYSRFREMHKTLKLKYAELAALEFPPKKLFGNKDERVIAPRRSHLEKYLRDFFS [E47P]: the abundance fitness stood at 0.118 ± 0.072.
On to ETWTVFRRYSRFREMHKTLKLKYAELAALEFPPKKLFGNKDERVIACRRSHLEKYLRDFFS [E47C], for which the abundance fitness is 0.038 ± 0.09.
For ETWTVFRRYSRFREMHKTLKLKYAELAALEFPPKKLFGNKDERVIAWRRSHLEKYLRDFFS [E47W], the abundance fitness is 0.014 ± 0.069.
Consider ETWTVFRRYSRFREMHKTLKLKYAELAALEFPPKKLFGNKDERVIAYRRSHLEKYLRDFFS [E47Y], for which the abundance fitness is -0.223 ± 0.093.
As to ETWTVFRRYSRFREMHKTLKLKYAELAALEFPPKKLFGNKDERVIAFRRSHLEKYLRDFFS [E47F], the abundance fitness came out at 0.117 ± 0.11.
In the case of ETWTVFRRYSRFREMHKTLKLKYAELAALEFPPKKLFGNKDERVIAHRRSHLEKYLRDFFS [E47H], the abundance fitness turned out to be 0.129 ± 0.2.
For the variant ETWTVFRRYSRFREMHKTLKLKYAELAALEFPPKKLFGNKDERVIAQRRSHLEKYLRDFFS [E47Q], the abundance fitness is -0.175 ± 0.085.
Take ETWTVFRRYSRFREMHKTLKLKYAELAALEFPPKKLFGNKDERVIAVRRSHLEKYLRDFFS [E47V]: the abundance fitness was -0.173 ± 0.054.
On to ETWTVFRRYSRFREMHKTLKLKYAELAALEFPPKKLFGNKDERVIATRRSHLEKYLRDFFS [E47T], for which the abundance fitness was found to be 0.132 ± 0.087.
On to ETWTVFRRYSRFREMHKTLKLKYAELAALEFPPKKLFGNKDERVIARRRSHLEKYLRDFFS [E47R], for which the abundance fitness is 0.099 ± 0.045.
In the case of ETWTVFRRYSRFREMHKTLKLKYAELAALEFPPKKLFGNKDERVIALRRSHLEKYLRDFFS [E47L], the abundance fitness is -0.274 ± 0.068.
As to ETWTVFRRYSRFREMHKTLKLKYAELAALEFPPKKLFGNKDERVIAGRRSHLEKYLRDFFS [E47G], the abundance fitness came to 0.243 ± 0.051.
The same measure for ETWTVFRRYSRFREMHKTLKLKYAELAALEFPPKKLFGNKDERVIAARRSHLEKYLRDFFS [E47A]: -0.307 ± 0.14; for ETWTVFRRYSRFREMHKTLKLKYAELAALEFPPKKLFGNKDERVIANRRSHLEKYLRDFFS [E47N]: 0.099 ± 0.12.
With ETWTVFRRYSRFREMHKTLKLKYAELAALEFPPKKLFGNKDERVIADRRSHLEKYLRDFFS [E47D], the abundance fitness worked out at 0.183 ± 0.079.
In the case of ETWTVFRRYSRFREMHKTLKLKYAELAALEFPPKKLFGNKDERVIAMRRSHLEKYLRDFFS [E47M], the abundance fitness was -0.053 ± 0.09.
Regarding ETWTVFRRYSRFREMHKTLKLKYAELAALEFPPKKLFGNKDERVIAIRRSHLEKYLRDFFS [E47I], the abundance fitness is -0.2 ± 0.29.
For the variant ETWTVFRRYSRFREMHKTLKLKYAELAALEFPPKKLFGNKDERVIASRRSHLEKYLRDFFS [E47S], the abundance fitness came out at 0.091 ± 0.05.
Take ETWTVFRRYSRFREMHKTLKLKYAELAALEFPPKKLFGNKDERVIAKRRSHLEKYLRDFFS [E47K]: the abundance fitness was -0.011 ± 0.16.
Take ETWTVFRRYSRFREMHKTLKLKYAELAALEFPPKKLFGNKDERVIYERRSHLEKYLRDFFS [A46Y]: the abundance fitness was -0.262 ± 0.13.
With ETWTVFRRYSRFREMHKTLKLKYAELAALEFPPKKLFGNKDERVISERRSHLEKYLRDFFS [A46S], the abundance fitness was determined as 0.147 ± 0.074.
For ETWTVFRRYSRFREMHKTLKLKYAELAALEFPPKKLFGNKDERVICERRSHLEKYLRDFFS [A46C], the abundance fitness worked out at 0.093 ± 0.22.
In the case of ETWTVFRRYSRFREMHKTLKLKYAELAALEFPPKKLFGNKDERVIFERRSHLEKYLRDFFS [A46F], the abundance fitness was -0.27 ± 0.18.
In the case of ETWTVFRRYSRFREMHKTLKLKYAELAALEFPPKKLFGNKDERVIRERRSHLEKYLRDFFS [A46R], the abundance fitness came to 0.131 ± 0.041.
For the variant ETWTVFRRYSRFREMHKTLKLKYAELAALEFPPKKLFGNKDERVIMERRSHLEKYLRDFFS [A46M], the abundance fitness was -0.073 ± 0.068.
On to ETWTVFRRYSRFREMHKTLKLKYAELAALEFPPKKLFGNKDERVIDERRSHLEKYLRDFFS [A46D], for which the abundance fitness was -0.01 ± 0.092.
For ETWTVFRRYSRFREMHKTLKLKYAELAALEFPPKKLFGNKDERVITERRSHLEKYLRDFFS [A46T], the abundance fitness was 0.242 ± 0.068.
In the case of ETWTVFRRYSRFREMHKTLKLKYAELAALEFPPKKLFGNKDERVIQERRSHLEKYLRDFFS [A46Q], the abundance fitness is -0.03 ± 0.13.
With ETWTVFRRYSRFREMHKTLKLKYAELAALEFPPKKLFGNKDERVIEERRSHLEKYLRDFFS [A46E], the abundance fitness came to 0.037 ± 0.078.
For the variant ETWTVFRRYSRFREMHKTLKLKYAELAALEFPPKKLFGNKDERVIWERRSHLEKYLRDFFS [A46W], the abundance fitness was -0.176 ± 0.089.
As to ETWTVFRRYSRFREMHKTLKLKYAELAALEFPPKKLFGNKDERVIPERRSHLEKYLRDFFS [A46P], the abundance fitness came out at 0.256 ± 0.095.
Regarding ETWTVFRRYSRFREMHKTLKLKYAELAALEFPPKKLFGNKDERVILERRSHLEKYLRDFFS [A46L], the abundance fitness was -0.324 ± 0.09.
In the case of ETWTVFRRYSRFREMHKTLKLKYAELAALEFPPKKLFGNKDERVIVERRSHLEKYLRDFFS [A46V], the abundance fitness is -0.057 ± 0.054.
As to ETWTVFRRYSRFREMHKTLKLKYAELAALEFPPKKLFGNKDERVIGERRSHLEKYLRDFFS [A46G], the abundance fitness came out at 0.211 ± 0.044.
For ETWTVFRRYSRFREMHKTLKLKYAELAALEFPPKKLFGNKDERVIKERRSHLEKYLRDFFS [A46K], the abundance fitness was determined as 0.186 ± 0.073.
In the case of ETWTVFRRYSRFREMHKTLKLKYAELAALEFPPKKLFGNKDERVWAERRSHLEKYLRDFFS [I45W], the abundance fitness amounted to 0.35 ± 0.052.
Turning to ETWTVFRRYSRFREMHKTLKLKYAELAALEFPPKKLFGNKDERVQAERRSHLEKYLRDFFS [I45Q], the abundance fitness was found to be 0.174 ± 0.046.
In the case of ETWTVFRRYSRFREMHKTLKLKYAELAALEFPPKKLFGNKDERVTAERRSHLEKYLRDFFS [I45T], the abundance fitness worked out at 0.158 ± 0.043.
To ETWTVFRRYSRFREMHKTLKLKYAELAALEFPPKKLFGNKDERVNAERRSHLEKYLRDFFS [I45N] belongs 0.031 ± 0.054.
On to ETWTVFRRYSRFREMHKTLKLKYAELAALEFPPKKLFGNKDERVVAERRSHLEKYLRDFFS [I45V], for which the abundance fitness worked out at 0.009 ± 0.048.
Turning to ETWTVFRRYSRFREMHKTLKLKYAELAALEFPPKKLFGNKDERVRAERRSHLEKYLRDFFS [I45R], the abundance fitness amounted to 0.133 ± 0.039.
On to ETWTVFRRYSRFREMHKTLKLKYAELAALEFPPKKLFGNKDERVYAERRSHLEKYLRDFFS [I45Y], for which the abundance fitness is -0.274 ± 0.099.
Turning to ETWTVFRRYSRFREMHKTLKLKYAELAALEFPPKKLFGNKDERVPAERRSHLEKYLRDFFS [I45P], the abundance fitness was found to be 0.271 ± 0.048.
Turning to ETWTVFRRYSRFREMHKTLKLKYAELAALEFPPKKLFGNKDERVIAECRSHLEKYLRDFFS [R48C], the abundance fitness is -0.148 ± 0.13.
